This is an account of results in publication PMC4787811 (Nucleic Acids Research, 2015).

One may read the stoichiometry N as a count of units in the complex or per binding partner.

Data set [1] concerns the molecule itself. The data set is described as follows: negative-stain EM, single particle 3D reconstruction.
Data set [2] has as its target T1, E1FL (full-length E1) (bovine papillomavirus (BPV-1), UniProt P03116 1-605). The data set is described as follows: gel filtration (SEC); no nucleotide cofactor; 50 uM E1, E1:DNA 6:1. To be noted: protein: recombinant; tags: GST fusion, tag cleaved with thrombin and removed; chain copies: 6; fork: 10 bp duplex, 3' T20 and 5' C10 arms. (SEC sorts molecules by how far they enter the pores of the column.)

The target of data set [3] is T1, E1FL (full-length E1). Put plainly: gel filtration (SEC) and negative stain EM (20 A); streptavidin (MTS) bound to biotin. To be noted: protein: recombinant; tags: GST fusion, tag cleaved with thrombin and removed; chain copies: 6; label: 5'-biotin on top strand (dsDNA end); fork: 10 bp duplex, 3' T20 and 5' C10 arms.
The target of data set [4] is T1, E1FL (full-length E1). The data set is described as follows: hydroxyl radical footprinting. To be noted: protein: recombinant; tags: GST fusion, tag cleaved with thrombin and removed; chain copies: 6; label: 5'-32P on top strand; fork: 30 bp duplex, 3' T20 and 5' C8 arms.
Data set [5] has as its target T1, E1FL (full-length E1). The data set is described as follows: hydroxyl radical footprinting; 10-fold excess unlabelled T18 competitor; similar protection to top strand. To be noted: protein: recombinant; tags: GST fusion, tag cleaved with thrombin and removed; chain copies: 6; label: 3'-32P on bottom strand; fork: 3' T20 and 5' C8 arms; 29 bp as printed before labelling.

Data set [6] deals with T1, E1FL (full-length E1). The data set is described as follows: gel filtration (SEC) and negative stain EM; no nucleotide cofactor; 50 uM E1, E1:DNA 6:1. To be noted: protein: recombinant; tags: GST fusion, tag cleaved with thrombin and removed; chain copies: 6; single strand.
The target in data set [7] is T1, E1FL (full-length E1). Put plainly: gel filtration (SEC) and negative stain EM (20 A); streptavidin (MTS) and anti-digoxigenin Fab bound to labels. To be noted: protein: recombinant; tags: GST fusion, tag cleaved with thrombin and removed; chain copies: 6; label: 5'-biotin on top strand; 5'-digoxigenin on bottom strand; fork: 10 bp duplex, 3' T20 and 5' C10 arms.

B1: full length BPV-1 E1 helicase (enzyme)
chain: MANDKGSNWDSGLGCSYLLTEAECESDKENEEPGAGVELSVESDRYDSQDEDFVDNASVFQGNHLEVFQALEKKAGEEQILNLKRKVLGSSQNSSGSEASETPVKRRKSGAKRRLFAENEANRVLTPLQVQGEGEGRQELNEEQAISHLHLQLVKSKNATVFKLGLFKSLFLCSFHDITRLFKNDKTTNQQWVLAVFGLAEVFFEASFELLKKQCSFLQMQKRSHEGGTCAVYLICFNTAKSRETVRNLMANTLNVREECLMLQPAKIRGLSAALFWFKSSLSPATLKHGALPEWIRAQTTLNESLQTEKFDFGTMVQWAYDHKYAEESKIAYEYALAAGSDSNARAFLATNSQAKHVKDCATMVRHYLRAETQALSMPAYIKARCKLATGEGSWKSILTFFNYQNIELITFINALKLWLKGIPKKNCLAFIGPPNTGKSMLCNSLIHFLGGSVLSFANHKSHFWLASLADTRAALVDDATHACWRYFDTYLRNALDGYPVSIDRKHKAAVQIKAPPLLVTSNIDVQAEDRYLYLHSRVQTFRFEQPCTDESGEQPFNITDADWKSFFVRLWGRLDLIDEEEDSEEDGDSMRTFTCSARNTNAVD
Regarding B1, the “stoichiometry N” value in data set [1] worked out at 6.

B2: RFJ 10 bp fork, 3' T20 and 5' C10 (dsDNA)
DNA 1: CCTCAGCGCGTTTTTTTTTTTTTTTTTTTT
DNA 2: CCCCCCCCCCCGCGCTGAGG
In the case of B2, in the data set with E1FL (full-length E1) [2], the binding result is “binds”.

B3: RFJ 10 bp fork, 5' dsDNA biotin (dsDNA)
DNA 1: B2 DNA 1
DNA 2: CCCCCCCCCCCGCGCTGAGG
In the case of B3, in the data set with E1FL (full-length E1) [3], the binding result is “binds”.

B4: 30 bp fork, 3' T20 and 5' C8, top strand labelled (dsDNA)
DNA 1: GGCTTGTATTTCACACCGCACCTCAGCGCGTTTTTTTTTTTTTTTTTTTT
DNA 2: CCCCCCCCCGCGCTGAGGTGCGGTGTGAAATACAAGCC
For B4, in the data set with E1FL (full-length E1) [4], the binding result is “binds”.

B5: 30 bp fork, 3' T20 and 5' C8, bottom strand labelled (dsDNA)
DNA 1: B4 DNA 1
DNA 2: CCCCCCCCCGCGCTGAGGTGCGGTGTGAAATACAAG
For the molecule B5, the binding result with E1FL (full-length E1) [5] is reported as “binds”.

In the case of TTTTTTTTTTTTTTTTTTTTTTTTTTTTTT (ssDNA) [ssDNA T30], the binding result with E1FL (full-length E1) [6] is “binds”.

B6: E1 helicase domain (residues 299-605) (domain or fragment)
chain: QTTLNESLQTEKFDFGTMVQWAYDHKYAEESKIAYEYALAAGSDSNARAFLATNSQAKHVKDCATMVRHYLRAETQALSMPAYIKARCKLATGEGSWKSILTFFNYQNIELITFINALKLWLKGIPKKNCLAFIGPPNTGKSMLCNSLIHFLGGSVLSFANHKSHFWLASLADTRAALVDDATHACWRYFDTYLRNALDGYPVSIDRKHKAAVQIKAPPLLVTSNIDVQAEDRYLYLHSRVQTFRFEQPCTDESGEQPFNITDADWKSFFVRLWGRLDLIDEEEDSEEDGDSMRTFTCSARNTNAVD
Regarding B6, the binding result in data set [1] was “binds”.

B7: RFJ 10 bp fork, 5' dsDNA biotin and 5' ssDNA digoxigenin (dsDNA)
DNA 1: B2 DNA 1
DNA 2: CCCCCCCCCCCGCGCTGAGG
As for B7, the binding result with E1FL (full-length E1) [7] is “binds”.
